Key:
Assay in all cases: peptide or protein array; peptides synthesized on a microarray, incubated with recombinant CSN, probed with anti-CSN3 and HRP-conjugated secondary antibody; spot intensity normalized to C-CSNAP (A1), averaged from six arrays
[1] = biological target: C-CSNAP peptide with a D-amino acid at Asp52 (peptide array)
[2] = biological target: C-CSNAP peptide with a D-amino acid at Asp53 (peptide array)
[3] = biological target: C-CSNAP peptide with a D-amino acid at Asp54 (peptide array)
[4] = biological target: C-CSNAP peptide with a D-amino acid at Asp55 (peptide array)
[5] = biological target: C-CSNAP peptide with a D-amino acid at Leu50 (peptide array)
[6] = biological target: C-CSNAP peptide with a D-amino acid at Phe51 (peptide array)

Measured: increase of the array signal over the original 16AA C-CSNAP peptide

recombinant COP9 signalosome complex (CSN) (from UniProt Q13098 1-491; Q9UNS2 1-423; Q92905 1-334; Q99627 2-209; Q8WXC6 1-57)
> 20%: all assays above

— paper PMC10355216, “The C-terminal tail of CSNAP attenuates the CSN complex” (Life Science Alliance, 2023)
